The chains are these.
B1: MCG-TatA (wild-type E. coli TatA extended at the N-terminus by Met-Cys-Gly) (natural protein, Escherichia coli)
chain: MCGMGGISIWQLLIIAVIVVLLFGTKKLGSIGSDLGASIKGFKKAMSDDEPKQDKTSQDADFTAKTIADKQADTNQEQAKTEDAKRHDKEQV
notes: three additional amino acids Met-Cys-Gly at the N-terminus, numbered M(-3)C(-2)G(-1); TatA, Escherichia coli, wild type, 89 amino acids, Met1 kept after the extension; The single chain of the disulphide-linked dimer d-MCG-TatA; It is used here for the subunit-to-subunit rows of the dimer structure and of the cross-link; source: in C12E9 with Superdex 200 gel filtration for blue-native PAGE; …
B2: Escherichia coli TatA, wild type, full length (natural protein, UniProt P69428 1-89, looked up)
chain: MGGISIWQLLIIAVIVVLLFGTKKLGSIGSDLGASIKGFKKAMSDDEPKQDKTSQDADFTAKTIADKQADTNQEQAKTEDAKRHDKEQV
notes: TatA, Escherichia coli, 89 amino acids, one transmembrane helix (Ile6-Phe20) and one amphipathic helix (Lys24-Met43); 15N- or 13C/15N-labelled for NMR; also called wt-TatA; wild-type TatA; source: in C12E9 with Superdex 200 gel filtration for blue-native PAGE
B3: TatA_(1–55), truncated E. coli TatA (residues Met1-Gln55) (domain or fragment, Escherichia coli, UniProt P69428 1-55, looked up)
chain: MGGISIWQLLIIAVIVVLLFGTKKLGSIGSDLGASIKGFKKAMSDDEPKQDKTSQ
notes: TatA, Escherichia coli, residues Met1-Gln55; the unstructured C-terminal region removed; 15N-labelled in the relaxation and PRE experiments; source: purified in DPC
B4: TatA_(1–55)-I12C-MTSL (domain or fragment, Escherichia coli, UniProt P69428 1-55, looked up)
chain: MGGISIWQLLIC(MTSL)AVIVVLLFGTKKLGSIGSDLGASIKGFKKAMSDDEPKQDKTSQ
notes: TatA, Escherichia coli, residues Met1-Gln55 with Ile12 mutated to cysteine; source: purified in DPC, unlabeled, tagged with MTSL
B5: TatA_(1–55)-I11C-MTSL (domain or fragment, Escherichia coli, UniProt P69428 1-55, looked up)
chain: MGGISIWQLLC(MTSL)IAVIVVLLFGTKKLGSIGSDLGASIKGFKKAMSDDEPKQDKTSQ
notes: TatA, Escherichia coli, residues Met1-Gln55 with Ile11 mutated to cysteine; source: purified in DPC, unlabeled, tagged with MTSL

Data set [1] deals with the molecule itself. As to the kind of experiment: solution NMR structure (intermolecular NOEs); disulphide-linked d-MCG-TatA of mixed unlabeled and 13C/15N-labeled MCG-TatA (2:1) in dDPC micelles, DPR about 80, 35°C; 13C/15N-filtered NOESY; 139 inter-subunit NOE restraints; Xplor-NIH.
Data set [2] deals with the molecule itself. As to the kind of experiment: NMR 1H-15N HSQC at decreasing detergent-to-protein ratio; full-length TatA in DPC micelles, 50 mM sodium phosphate pH 7.0, 35°C; DPR lowered from >200; new sets of cross peaks appear.
Data set [3] concerns the molecule itself. As to the kind of experiment: NMR backbone 15N relaxation (R2/R1); TatA_(1–55) in DPC micelles, DPR ~70, two sets of peaks in the HSQC, 800 MHz, 35°C; monomer to dimer.
Data set [4] has as its target B3. Briefly: NMR intermolecular paramagnetic relaxation enhancement (PRE); unlabeled MTSL-tagged TatA_(1–55) cysteine mutant mixed at equal molar ratio with 15N-labeled TatA_(1–55) in DPC, 50 mM sodium phosphate pH 7.0, final DPR 40; reference spectrum after reduction with ascorbic acid. The conditions noted are these: both partners purified.

Where no end group is shown, it is not given here. The star is where a group is joined. MTSL = 1-oxy-2,2,5,5-tetramethyl-D-pyrroline-3-methyl methanethiosulfonate spin label, CC1(C)C=C(CS*)C(C)(C)N1[O]

Usually stoichiometry N stands for the number of molecules, sites or subunits per partner or assembly.

As to B1, the binding result in data set [1] is given as “binds”.

In the case of B2, in data set [2], the binding result is on record as “binds”.

As for B3, the “stoichiometry N” value in data set [3] stood at 2.

As to B4, the “stoichiometry N” value in data set [4] was 2.

With B5, the binding result in data set [4] is “binds”.

Source of the values: PMC4121141, “Structural Basis for TatA Oligomerization: An NMR Study of Escherichia coli TatA Dimeric Structure” (PLoS ONE, 2014).
